Assays:
[1] = Perhydrolase activity of targeted hydrolases, ABTS assay; format: biochemical
Method: The ABTS assay was performed as follows: hair samples treated as described above were transferred to new 2-mL microcentrifuge tubes (Eppendorf Protein LoBind; Eppendorf North America, Hauppauge, N.Y.) To each tube was added 480 μL of PAH buffer ([…]), 14 μL of 39% hydrogen peroxide (Sigma 3410), and 6 μL triacetin (Sigma-Aldrich W200700). The perhydrolase reaction was allowed to proceed for 10 minutes at room temperature (˜22-25° C.). The reaction was stopped by diluting aliquots 10×, 100× and 1000× with 10 mM phosphoric acid. For detection 50 μL of 1 M acetic acid, 50 μL of 40 mg/mL potassium iodide, and 50 μL of 4 mM ABTS (2,2′-azino-bis(3-ethylbenzthiazoline-6-sulphonic acid; Sigma, St Louis, Mo.) were added to 50 μL of the above dilutions. Color was allowed to develop for 10 minutes and read in a spectrophotometer at 405 nm. Values from no-enzyme controls were subtracted to yield values attributable only to enzyme activity. A standard curve of OD 405 nm vs PAA concentration in ppm yielded a conversion factor of 8.75, such that an OD 405 nm of 1.0 corresponded to approximately 8.75 ppm PAA. This value was then multiplied by the appropriate dilution to arrive at the PAA concentration in the perhydrolase reaction.
The perhydrolase activity of the enzymes targeted to hair with a variety of targeting domains produced as described in Example 32 was measured with the ABTS assay.

[2] = Perhydrolase activity remaining bound to hair, ABTS assay; format: binding, human
Method: Ten mg of human hair was submerged in 2 mL of a binding solution containing 50 μg/mL of the Thermotoga maritima perhydrolase targeted to hair via the hair binding peptide HC263 (C277S-HC263; SEQ ID NO: 288; also referred to herein as “HC1121”) in 50 mM pH 7.2 potassium phosphate buffer containing 5% of the test surfactant. The test surfactants were two nonionic surfactants: TWEEN®-20 (Sigma, St Louis, Mo.), and TRITON®-X 100 (Aldrich, St Louis, Mo.), and two ionic surfactants: CHEMBETAINE™ CAD (Cocamidopropyl betaine; Lubrizol, Wickliffe, Ohio) and RHODAPEX® ES-2K (sodium laurel ether sulfate; Rhodia Novecare, Cranbury, N.J.).
Hair was incubated in the binding solution at room temperature (˜22° C.) with gentle agitation for 30 minutes, at which time the solution was removed by aspiration and the hair rinsed with 1% TWEEN®-20 in 50 mM pH 7.2 potassium phosphate buffer. The hair was removed from the tube, blotted dry with paper towel, and transferred to a new set of tubes. The hair was rinsed once with 1% TWEEN®-20 in 50 mM pH 7.2 potassium phosphate buffer and then rinsed three times with 50 mM pH 7.2 potassium phosphate buffer. Perhydrolase activity remaining bound to the hair was determined by the ABTS assay.
The ABTS assay was performed as follows: hair samples treated as described above were transferred to new 2-mL microcentrifuge tubes (Eppendorf Protein LoBind; Eppendorf North America, Hauppauge, N.Y.) To each tube was added 480 μL of PAH buffer (50 mM potassium phosphate, pH 7.2), 14 μL of 39% hydrogen peroxide (Sigma 3410), and 6 μL triacetin (Sigma-Aldrich W200700). The perhydrolase reaction was allowed to proceed for 10 minutes at room temperature (˜22-25° C.). The reaction was stopped by diluting aliquots 10×, 100× and 1000× with 10 mM phosphoric acid. For detection 50 μL of 1 M acetic acid, 50 μL of 40 mg/mL potassium iodide, and 50 μL of 4 mM ABTS (2,2′-azino-bis(3-ethylbenzthiazoline-6-sulphonic acid; Sigma, St Louis, Mo.) were added to 50 μL of the above dilutions. Color was allowed to develop for 10 minutes and read in a spectrophotometer at 405 nm. Values from no-enzyme controls were subtracted to yield values attributable only to enzyme activity. A standard curve of OD 405 nm vs PAA concentration in ppm yielded a conversion factor of 8.75, such that an OD 405 nm of 1.0 corresponded to approximately 8.75 ppm PAA. This value was then multiplied by the appropriate dilution to arrive at the PAA concentration in the perhydrolase reaction.
The Thermotoga maritima perhydrolase targeted to hair via the hair binding peptide HC263 (C277S-HC263; SEQ ID NO: 288) was diluted to 50 μg/mL in a solution of 5% PEG-80 sorbitan laurate in 100 mM citrate-phosphate buffer adjusted to pH 4.9, pH 5.5, pH 6.0, or pH 7.0. Ten mg of human hair was added to 2 mL of the above formulations and incubated with gentle agitation for 5 minutes at room temperature to allow enzyme binding to hair. A no-enzyme control sample was included with each pH. After binding, the binding solution was removed by aspiration and the hair was washed with 2 mL of 1% TWEEN®-20 in 50 mM pH 7.2 potassium phosphate buffer. The hair was removed from the tube, blotted dry with paper towel, and transferred to a new set of tubes. The hair was rinsed once with 1% TWEEN®-20 in 50 mM pH 7.2 potassium phosphate buffer and then rinsed three time with 50 mM pH 7.2 potassium phosphate buffer. Perhydrolase activity remaining bound to the hair was determined by the ABTS assay. The results are given as ppm PAA produced at 10 minutes (after subtraction of the no-enzyme control values)
The Thermotoga maritima perhydrolase targeted to hair via the hair binding peptide HC263 (C277S-HC263; SEQ ID NO: 288) was diluted to 50 μg/mL in a solution of 5% PEG-80 sorbitan laurate in 100 mM citrate-phosphate buffer adjusted to pH 6.0. […]

[3] = 50 μg/mL, pH 6.0, binding 1 min, at 10 minutes

B1: C277S-HC263: C277S variant of Thermotoga maritima perhydrolase fused via a flexible linker to hair-binding domain HC263 (protein)
chain: MAFFDLPLEELKKYRPERYEEKDFDEFWEETLAESEKFPLDPVFERMESHLKTVEAYDVTFSGYRGQRIKGWLLVPKLEEEKLPCVVQYIGYNGGRGFPHDWLFWPSMGYICFVMDTRGQGSGWLKGDTPDYPEGPVDPQYPGFMTRGILDPRTYYYRRVFTDAVRAVEAAASFPQVDQERIVIAGGSQGGGIALAVSALSKKAKALLCDVPFLCHFRRAVQLVDTHPYAEITNFLKTHRDKEEIVFRTLSYFDGVNFAARAKIPALFSVGLMDNISPPSTVFAAYNYYAGPKEIRIYPYNNHEGGGSFQAVEQVKFLKKLFEKGGPGSGGAGSPGSAGGPGSPSAQSQLPDKHSGLHERAPQRYGPEPEPEPEPIPEPPKEAPVVIEKPKPKPKPKPKPPAHDHKNQKETHQRHAAGSGGGGSPHHHHHH
Specific perhydrolase activity ([1]; 1 m Na acetate at pH 5.5 instead of triacetin): The perhydrolase activity of the fusions of the Pseudomonas fluorescens hydrolase was assayed using 1 m Na acetate at pH 5.5 instead of triacetin at pH 7.5 Targeted Perhydrolases HC1121 (C277S-HC263; SEQ ID NO: 288) had no detectable perhydrolase activity with acetate as a substrate.
Perhydrolase Activity Retained on Hair, ppm PAA ([2]; 50 μg/mL enzyme bound 30 min in 5% CHEMBETAINE™ CAD): 455 ppm
Perhydrolase Activity Retained on Hair, ppm PAA ([2]; 50 μg/mL enzyme bound 30 min in 5% RHODAPEX® ES-2K): 315 ppm
Perhydrolase Activity Retained on Hair, ppm PAA ([2]; 50 μg/mL enzyme bound 30 min in 5% TRITON®-X 100): 1540 ppm
Perhydrolase Activity Retained on Hair, ppm PAA ([2]; 50 μg/mL enzyme bound 30 min in 5% TWEEN®-20): 2126 ppm
ppm PAA ([2]; 50 μg/mL, 5% PEG-80 sorbitan laurate pH 6.0, binding 10 min, PAA at 10 minutes): 581 ppm
Perhydrolase Activity Deposited on Hair, ppm PAA ([2]; 50 μg/mL, 5% PEG-80 sorbitan laurate pH 6.0, binding time 0.5 min): 954 ppm
Perhydrolase Activity Deposited on Hair, ppm PAA ([2]; 50 μg/mL, 5% PEG-80 sorbitan laurate, binding 5 min, pH 4.9): 437 ppm
Perhydrolase Activity Deposited on Hair, ppm PAA ([2]; binding 5 min, pH 5.5): 1312 ppm
Perhydrolase Activity Deposited on Hair, ppm PAA ([2]; binding 5 min, pH 6.0): 1137 ppm
Perhydrolase Activity Deposited on Hair, ppm PAA ([2]; binding 5 min, pH 7.0): 385 ppm
values obtained (ABTS assay) ([2]; bound in 5% CHEMBETAINE™ CAD): 0.52
values obtained (ABTS assay) ([2]; bound in 5% RHODAPEX® ES-2K): 0.36
values obtained (ABTS assay) ([2]; bound in 5% TRITON®-X 100): 1.76
values obtained (ABTS assay) ([2]; bound in 5% TWEEN®-20): 2.43
Perhydrolase Activity Deposited on Hair, ppm PAA ([2]; pH 6.0, binding time 1 min): 962 ppm
Perhydrolase Activity Deposited on Hair, ppm PAA ([2]; pH 6.0, binding time 2 min): 988 ppm
Perhydrolase Activity Deposited on Hair, ppm PAA ([2]; pH 6.0, binding time 5 min): 1093 ppm

B2: SEQ ID NO: 323: S54V variant of the aryl esterase from Mycobacterium smegmatis fused to hair binding domain HC263 via a flexible linker (protein)
chain: MAKRILCFGDSLTWGWVPVEDGAPTERFAPDVRWTGVLAQQLGADFEVIEEGLVARTTNIDDPTDPRLNGASYLPSCLATHLPLDLVIIMLGTNDTKAYFRRTPLDIALGMSVLVTQVLTSAGGVGTTYPAPKVLVVSPPPLAPMPHPWFQLIFEGGEQKTTELARVYSALASFMKVPFFDAGSVISTDGVDGIHFTEANNRDLGVALAEQVRSLLGPGSGGAGSPGSAGGPGSPSAQSQLPDKHSGLHERAPQRYGPEPEPEPEPIPEPPKEAPVVIEKPKPKPKPKPKPPAHDHKNQKETHQRHAAGSGGGGSPHHHHHH
Specific perhydrolase activity ([1]; triacetin at pH 7.5): 270 µmol/mg/min
ppm PAA ([2]; 50 μg/mL, binding 1 min, hair with no PAA treatment): 269 ppm
ppm PAA ([2]; 50 μg/mL, binding 1 min, hair with one PAA treatment (0.2% PAA, 1 hr)): 526 ppm
ppm PAA ([2]; 50 μg/mL, binding 1 min, hair with two PAA treatments): 702 ppm
OD 405nm [2, 3]: 0.237
Peracetic acid [2, 3]: 207 ppm

Source: patent US20130171217A1, “ENZYMATIC PERACID GENERATION FOR USE IN SKIN CARE PRODUCTS” (E I DU PONT DE NEMOURS AND COMPANY, priority 2010, published 2013)
